Measured values: article doi:10.1101/2025.07.02.662585 (bioRxiv, 2025)

Biological target: Tor2 (yeast (endogenous in yeast cells), UniProt P32600 1-2474)
Assay: cryo-EM structure

Chain of Tor2 (P32600 whole entry): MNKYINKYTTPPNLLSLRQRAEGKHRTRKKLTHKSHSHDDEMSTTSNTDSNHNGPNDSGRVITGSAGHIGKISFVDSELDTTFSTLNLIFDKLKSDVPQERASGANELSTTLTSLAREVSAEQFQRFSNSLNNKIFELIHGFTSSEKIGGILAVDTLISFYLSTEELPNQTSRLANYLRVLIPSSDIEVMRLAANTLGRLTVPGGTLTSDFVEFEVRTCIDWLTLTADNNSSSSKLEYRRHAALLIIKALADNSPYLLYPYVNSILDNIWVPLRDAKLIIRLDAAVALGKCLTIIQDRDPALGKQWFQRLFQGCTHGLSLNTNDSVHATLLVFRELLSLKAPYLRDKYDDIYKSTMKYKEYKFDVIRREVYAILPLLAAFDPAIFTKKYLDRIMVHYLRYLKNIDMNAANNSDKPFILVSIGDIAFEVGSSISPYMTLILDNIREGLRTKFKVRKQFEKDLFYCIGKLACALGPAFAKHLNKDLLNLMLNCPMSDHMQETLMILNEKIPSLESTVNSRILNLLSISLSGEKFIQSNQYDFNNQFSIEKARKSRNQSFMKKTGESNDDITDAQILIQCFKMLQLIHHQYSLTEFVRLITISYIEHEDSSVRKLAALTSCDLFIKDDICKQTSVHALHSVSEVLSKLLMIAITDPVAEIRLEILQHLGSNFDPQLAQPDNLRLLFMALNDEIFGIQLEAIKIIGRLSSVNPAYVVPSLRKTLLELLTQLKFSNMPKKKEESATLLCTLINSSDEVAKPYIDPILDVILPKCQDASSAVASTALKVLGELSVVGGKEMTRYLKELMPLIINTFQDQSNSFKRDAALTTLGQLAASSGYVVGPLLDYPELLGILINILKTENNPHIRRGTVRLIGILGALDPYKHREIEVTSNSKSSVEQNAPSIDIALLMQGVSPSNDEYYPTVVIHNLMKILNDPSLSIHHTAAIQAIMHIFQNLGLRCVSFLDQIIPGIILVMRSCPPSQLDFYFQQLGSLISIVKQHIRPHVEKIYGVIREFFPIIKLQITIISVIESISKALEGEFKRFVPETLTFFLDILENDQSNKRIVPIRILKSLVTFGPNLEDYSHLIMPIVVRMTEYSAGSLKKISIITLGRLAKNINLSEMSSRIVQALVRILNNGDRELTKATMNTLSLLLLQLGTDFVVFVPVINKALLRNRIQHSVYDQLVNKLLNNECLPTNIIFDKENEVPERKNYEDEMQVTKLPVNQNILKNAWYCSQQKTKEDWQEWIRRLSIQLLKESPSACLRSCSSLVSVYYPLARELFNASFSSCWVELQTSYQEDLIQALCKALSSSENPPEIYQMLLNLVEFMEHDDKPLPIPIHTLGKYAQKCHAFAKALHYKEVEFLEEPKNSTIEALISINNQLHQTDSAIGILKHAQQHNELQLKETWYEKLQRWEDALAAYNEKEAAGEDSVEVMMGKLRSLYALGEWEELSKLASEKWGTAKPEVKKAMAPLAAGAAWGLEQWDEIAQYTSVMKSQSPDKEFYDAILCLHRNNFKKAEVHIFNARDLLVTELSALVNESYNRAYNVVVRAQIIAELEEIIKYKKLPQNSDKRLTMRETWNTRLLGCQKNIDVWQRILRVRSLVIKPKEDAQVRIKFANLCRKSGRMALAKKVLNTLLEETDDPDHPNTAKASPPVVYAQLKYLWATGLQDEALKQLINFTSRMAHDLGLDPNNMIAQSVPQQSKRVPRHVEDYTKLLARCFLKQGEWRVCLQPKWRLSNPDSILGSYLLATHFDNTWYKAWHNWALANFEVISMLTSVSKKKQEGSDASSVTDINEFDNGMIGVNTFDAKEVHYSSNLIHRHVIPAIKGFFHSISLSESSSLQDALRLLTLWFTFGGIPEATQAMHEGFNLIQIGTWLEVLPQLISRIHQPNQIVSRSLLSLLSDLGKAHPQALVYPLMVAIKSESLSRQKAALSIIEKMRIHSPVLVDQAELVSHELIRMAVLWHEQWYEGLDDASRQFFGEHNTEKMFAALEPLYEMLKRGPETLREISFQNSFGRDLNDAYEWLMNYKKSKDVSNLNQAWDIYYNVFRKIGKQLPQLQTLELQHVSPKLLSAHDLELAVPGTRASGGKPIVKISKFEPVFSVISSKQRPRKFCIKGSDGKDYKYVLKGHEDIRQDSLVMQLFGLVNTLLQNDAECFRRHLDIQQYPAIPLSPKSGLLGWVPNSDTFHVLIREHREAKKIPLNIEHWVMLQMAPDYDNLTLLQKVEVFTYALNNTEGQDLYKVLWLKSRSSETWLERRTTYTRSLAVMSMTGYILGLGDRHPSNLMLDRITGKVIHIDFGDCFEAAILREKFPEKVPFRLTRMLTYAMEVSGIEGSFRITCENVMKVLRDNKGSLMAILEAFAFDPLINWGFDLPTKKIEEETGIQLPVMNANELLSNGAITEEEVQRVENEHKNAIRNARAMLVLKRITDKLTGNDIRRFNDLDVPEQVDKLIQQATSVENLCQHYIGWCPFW

Binder	binding result
Avo2 (natural protein) MLKEPSVRLREAIIEGNLLIVKRLLRRNPDLLTNIDSENGWSSLHYASYHGRYLICVYLIQLGHDKHELIKTFKGNTCVHLALMKGHEQTLHLLLQQFPRFINHRGENGRAPIHIACMNDYYQCLSLLIGVGADLWVMDTNGDTPLHVCLEYGSISCMKMLLNEGEVSLDDNVRDKGNWKPIDVAQTFEVGNIYSKVLKEVKKKGPPLGAGKKPSSFRTPILNAKATFEDGPSPVLSMNSPYSLYSNNSPLPVLPRRISTHTTSGNGGNRRSSITNPVFNPRKPTLSTDSFSSSSNSSSRLRVNSINVKTPVGVSPKKELVSESVRHSATPTSPHNNIALINRYLLPNKSNDNVRGDSQTATINDDGGGGNGGDATIGMGLRKDPDDENENKYKIKVNNGEPRRRVSLLNIPISKLRNSNNTRAED	binds
Lst8 (natural protein) MSVILVSAGYDHTIRFWEALTGVCSRTIQHSDSQVNRLEITNDKKLLATAGHQNVRLYDIRTTNPNPVASFEGHRGNVTSVSFQQDNRWMVTSSEDGTIKVWDVRSPSIPRNYKHNAPVNEVVIHPNQGELISCDRDGNIRIWDLGENQCTHQLTPEDDTSLQSLSMASDGSMLAAANTKGNCYVWEMPNHTDASHLKPVTKFRAHSTYITRILLSSDVKHLATCSADHTARVWSIDDDFKLETTLDGHQRWVWDCAFSADSAYLVTASSDHYVRLWDLSTREIVRQYGGHHKGAVCVALNDV	binds
